B1: P2RY14 (parent)
chain: KKIFKSHLKSSRNSTSVKKKSSRN
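Note: lentivirally expressed fusions sorted by FACS into six bins by GFP to DsRed ratio, PSI derived from sequencing read proportions per bin multiplied by bin number.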

Variants of B1 are the subject of the data set. The experiment in a line: protein stability index of a GFP-peptide fusion (GPS, HEK-293T) (PSI 1-6); higher = more stable. The following applies: c terminus: a fixed tail appended.
For HKIFKSHLKSSRNSTSVKKKSSRN [K1H], the protein stability index was 4.63.
With MKIFKSHLKSSRNSTSVKKKSSRN [K1M] the figure was 3.43; with KKIFKSHLKSSRNSTSVKKKSSYN [R23Y], 4.07; with KKIFKSHLKSSRNSTSVKKKSSPN [R23P], 3.73.
The result for KKIFKSHLKSSRNSTSVKKKSSHN [R23H] reads 3.57; that for KKIFKSHLKSSRNSTSVKKKSSGN [R23G], 3.94; that for KKIFKSHLKSSRNSTSVKKKSSQN [R23Q], 4.38.
With KKIFKSHLKSSRNKTSVKKKSSRN [S14K] the figure was 4.07.
With KKIFKSHLKSSRNTTSVKKKSSRN [S14T], the protein stability index turned out to be 4.33.
As for KKIFQSHLKSSRNSTSVKKKSSRN [K5Q], the protein stability index was 4.27.
With KKIFWSHLKSSRNSTSVKKKSSRN [K5W] the figure was 3.45.
For KKIFVSHLKSSRNSTSVKKKSSRN [K5V], the protein stability index stood at 3.93.
As to KKIFFSHLKSSRNSTSVKKKSSRN [K5F], the protein stability index was found to be 4.01.
The result for KKIRKSHLKSSRNSTSVKKKSSRN [F4R] reads 4.48; that for KKIWKSHLKSSRNSTSVKKKSSRN [F4W], 3.96; that for KKIEKSHLKSSRNSTSVKKKSSRN [F4E], 4.45.
As for KKIAKSHLKSSRNSTSVKKKSSRN [F4A], the protein stability index came to 4.49.
For the variant KKITKSHLKSSRNSTSVKKKSSRN [F4T], the protein stability index was 4.
Turning to KKIFKSFLKSSRNSTSVKKKSSRN [H7F], the protein stability index came to 3.76.
The result for KKIFKSCLKSSRNSTSVKKKSSRN [H7C] reads 4.05; that for KKIFKSVLKSSRNSTSVKKKSSRN [H7V], 3.93; that for KKIFKSHLKSSANSTSVKKKSSRN [R12A], 4.17.
The result for KKIFKSHLKSSHNSTSVKKKSSRN [R12H] reads 3.93.
With KKIFKSHLKSSFNSTSVKKKSSRN [R12F] the figure was 3.83; with KKIFKSHLKSSPNSTSVKKKSSRN [R12P], 4.15; with KKIFKSHLKSSGNSTSVKKKSSRN [R12G], 3.87.
Take KKIFKSHLKSSLNSTSVKKKSSRN [R12L]: the protein stability index was 4.11.
Regarding KKIFKSHLKSSRNSTVVKKKSSRN [S16V], the protein stability index came out at 3.82.
With KIIFKSHLKSSRNSTSVKKKSSRN [K2I] the figure was 3.35; with KTIFKSHLKSSRNSTSVKKKSSRN [K2T], 4.3.
The result for KRIFKSHLKSSRNSTSVKKKSSRN [K2R] reads 3.88.
The result for KMIFKSHLKSSRNSTSVKKKSSRN [K2M] reads 3.53; that for KVIFKSHLKSSRNSTSVKKKSSRN [K2V], 3.73.
Consider KSIFKSHLKSSRNSTSVKKKSSRN [K2S], for which the protein stability index amounted to 4.37.
Regarding KKIFKFHLKSSRNSTSVKKKSSRN [S6F], the protein stability index was 3.34.
The result for KKIFKVHLKSSRNSTSVKKKSSRN [S6V] reads 3.79; that for KKIFKSHLKSSRNSTSVKKKGSRN [S21G], 3.8; that for KKIFKSHLKSSRNSTSVKKKISRN [S21I], 3.98.
With KKIFKSHLKSSRNSTSVKKKQSRN [S21Q] the figure was 3.88; with KKIFKSHLKSSRNSTSVKKKSVRN [S22V], 4.33.
The result for KKIFKSHLKSSRNSTSVKKKSYRN [S22Y] reads 3.56; that for KKIFKSHLKSSRNSTSVKKKSQRN [S22Q], 4.49.
As to KKIFKSHLKSSRNSTSVKKKSPRN [S22P], the protein stability index is 4.21.
The result for KKIFKSHLKSSRNSTSVKKKSKRN [S22K] reads 4.43.
The result for KKIFKSHLKSSRNSTSVKKKSIRN [S22I] reads 5.05; that for KKIFKSHLKSSRNSTSVKKKSFRN [S22F], 2.92.
The result for KKIFKSHLISSRNSTSVKKKSSRN [K9I] reads 3.7.
On to KKIFKSHLWSSRNSTSVKKKSSRN [K9W], for which the protein stability index was found to be 3.21.
The result for KKIFKSHLCSSRNSTSVKKKSSRN [K9C] reads 4.37; that for KKIFKSHLLSSRNSTSVKKKSSRN [K9L], 4.05; that for KKIFKSHLKSIRNSTSVKKKSSRN [S11I], 3.98.
With KKIFKSHLKSMRNSTSVKKKSSRN [S11M] the figure was 3.62.
The result for KKIFKSHLKSLRNSTSVKKKSSRN [S11L] reads 4.12; that for KKIFKSHLKSHRNSTSVKKKSSRN [S11H], 4.67.
Take KKIFKSHLKSSRESTSVKKKSSRN [N13E]: the protein stability index was 3.55.
With KKIFKSHLKSSRMSTSVKKKSSRN [N13M] the figure was 3.64.
In the case of KKIFKSHLKSSRCSTSVKKKSSRN [N13C], the protein stability index was determined as 3.74.
The result for KKIFKSHLKLSRNSTSVKKKSSRN [S10L] reads 4.02; that for KKIFKSHLKESRNSTSVKKKSSRN [S10E], 4; that for KKIFKSHLKMSRNSTSVKKKSSRN [S10M], 4.01.
With KKIFKSHLKTSRNSTSVKKKSSRN [S10T] the figure was 4.17; with KKIFKSHLKISRNSTSVKKKSSRN [S10I], 3.59.
Turning to KKIFKSHLKHSRNSTSVKKKSSRN [S10H], the protein stability index amounted to 4.14.
With KKIFKSHNKSSRNSTSVKKKSSRN [L8N] the figure was 4.31; with KKIFKSHWKSSRNSTSVKKKSSRN [L8W], 3.95; with KKIFKSHKKSSRNSTSVKKKSSRN [L8K], 4.29.
With KKIFKSHRKSSRNSTSVKKKSSRN [L8R] the figure was 4.14.
For the variant KKIFKSHLKSSRNSPSVKKKSSRN [T15P], the protein stability index amounted to 4.28.
With KKIFKSHLKSSRNSISVKKKSSRN [T15I] the figure was 4.04; with KKIFKSHLKSSRNSASVKKKSSRN [T15A], 4.27; with KKIFKSHLKSSRNSFSVKKKSSRN [T15F], 3.52.
As to KKRFKSHLKSSRNSTSVKKKSSRN [I3R], the protein stability index stood at 4.44.
For the variant KKPFKSHLKSSRNSTSVKKKSSRN [I3P], the protein stability index stood at 4.38.
As to KKAFKSHLKSSRNSTSVKKKSSRN [I3A], the protein stability index is 4.18.
With KKHFKSHLKSSRNSTSVKKKSSRN [I3H] the figure was 4.34; with KKIFKSHLKSSRNSTSVKVKSSRN [K19V], 4.31; with KKIFKSHLKSSRNSTSVKCKSSRN [K19C], 3.34.
With KKIFKSHLKSSRNSTSVKHKSSRN [K19H] the figure was 3.99; with KKIFKSHLKSSRNSTSVKLKSSRN [K19L], 3.5; with KKIFKSHLKSSRNSTSVGKKSSRN [K18G], 3.99.
KKIFKSHLKSSRNSTSVMKKSSRN [K18M]: the protein stability index was 4.1.
The result for KKIFKSHLKSSRNSTSVWKKSSRN [K18W] reads 2.98.
The result for KKIFKSHLKSSRNSTSVDKKSSRN [K18D] reads 3.98; that for KKIFKSHLKSSRNSTSVKKKSSRF [N24F], 3.61; that for KKIFKSHLKSSRNSTSVKKKSSRE [N24E], 3.91.
The result for KKIFKSHLKSSRNSTSVKKKSSRH [N24H] reads 4.38; that for KKIFKSHLKSSRNSTSVKKKSSRV [N24V], 4.11.
KKIFKSHLKSSRNSTSIKKKSSRN [V17I]: the protein stability index stood at 3.59.
With KKIFKSHLKSSRNSTSYKKKSSRN [V17Y] the figure was 3.99.
KKIFKSHLKSSRNSTSVKKYSSRN [K20Y]: the protein stability index stood at 3.95.
As for KKIFKSHLKSSRNSTSVKKFSSRN [K20F], the protein stability index came to 2.75.
With KKIFKSHLKSSRNSTSVKKSSSRN [K20S] the figure was 4.07; with KKIFKSHLKSSRNSTSVKKASSRN [K20A], 3.64.
For KKIFKSHLKSSRNSTSVKKVSSRN [K20V], the protein stability index is 3.81.

The values above are taken from the supplement of paper PMC10567573.
